Patent publication US20210380703A1 (RIGEL PHARMACEUTICALS, published 2021)
Changes are numbered by the printed parent chain.

B1: 373_E12 (antibody, V domains shown)
VH: EVQLLESGGGLVQPGGSLRLSCAASGFTFSSYSMNWVRQAPGKGLEWVANINYNGGYTGYADSVKGRFTISRDNSKNTLYLQMNSLRAEDTAVYYCARSANWHDTALDYWGQGTLVTVSS
VL: DIQMTQSPSSLSASVGDRVTITCRASQSILSYVNWYQQKPGKAPKLVIYAATSRASGVPSRFSGSGSGTDFTLTISSLQPEDFATYYCQQSYDTPLTFGGGTKVEIK
B2: 374_A03 (antibody, V domains shown)
VH: B1 VH with S30D, A49S, G59S, N101T, A106H
VL: B1 VL with S31T, V33L, V47L, T94N
notes: VH and VL only
B3: 373_G12 (antibody, V domains shown)
VH: B1 VH with A49S, G59S
VL: B1 VL with V33L, V47L, A51T, R54L, D93N, T94S
B4: 367_G08 (antibody, V domains shown)
VH: B1 VH with S30D, S33G, A49S, T58K, N101T, A106H
VL: B1 VL with V33L, V47L, D93E, T94N
notes: VH and VL only
B5: 374_B12 (antibody, V domains shown)
VH: B1 VH with S30D, N50G, A106H
VL: B1 VL with L30S, V33L, T94N
B6: 374_B04 (antibody, V domains shown)
VH: B1 VH with A49S, G55S
VL: B1 VL with L30V, V33L, V47L, A51V, D93E, T94S
B7: 366_E03 (antibody, V domains shown)
VH: B1 VH with S30D, S33G, A49S, T58K, G59S, N101T, A106H
VL: B1 VL with S31T, V33L, A55H, D93S, T94N
notes: VH and VL only
B8: 366_C07 (antibody, V domains shown)
VH: B1 VH with A49S, G59S, N101T, A106H
VL: B1 VL with S31T, V47L, D93N, T94S
notes: VH and VL only
B9: 368_B05 (antibody, V domains shown)
VH: B1 VH with S30D, A49S, N50S, G55S, N101T, A106H
VL: not shown
notes: VH and VL only
B10: 365_G02 (antibody, V domains shown)
VH: B1 VH with S31D, A49S, G55S, T58K, N101T, A106H
VL: B1 VL with L30V, S31T, V33L, A51V, R54L, A55H, D93E, T94L
notes: VH and VL only
B11: 373_H05 (antibody, V domains shown)
VH: B1 VH with S31D, T58K
VL: B1 VL with S31T, D93E
B12: 366_E02 (antibody, V domains shown)
VH: B1 VH with A49S, N50G, G55S, T58K, N101T, A106H
VL: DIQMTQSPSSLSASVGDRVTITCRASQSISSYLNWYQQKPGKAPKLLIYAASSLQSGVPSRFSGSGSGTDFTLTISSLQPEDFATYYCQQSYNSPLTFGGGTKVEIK
notes: VH and VL only
B13: 373_G10 (antibody, V domains shown)
VH: B1 VH with S31D, S33G, A49S, T58K, G59S
VL: B1 VL with L30V, V47L, T94L
B14: 367_D02 (antibody, V domains shown)
VH: B1 VH with S30D, S31D, A49S, G59S, N101T, A106H
VL: B1 VL with L30V, S31T, V47L, D93E, T94N
notes: VH and VL only
B15: 366_C03 (antibody, V domains shown)
VH: B1 VH with S30D, S33G, A49S, N101T, A106H
VL: B1 VL with V33L, D93S, T94N
notes: VH and VL only
B16: 365_D06 (antibody, V domains shown)
VH: B1 VH with S30D, A49S, G59S, N101T, A106H
VL: B1 VL with S31T, V47L, D93S, T94L
notes: VH and VL only
B17: 374_D08 (antibody, V domains shown)
VH: B1 VH with S30D, S33G, A49S, N50G, G55S, A106H
VL: B1 VL with S31T, V33L, V47L, A55H, D93E, T94S
B18: 374_B06 (antibody, V domains shown)
VH: B1 VH with S30D, N50G, G55S, T58K, A106H
VL: B1 VL with S31T, V47L
B19: 365_H09 (antibody, V domains shown)
VH: B1 VH with S33G, A49S, N50S, G55S, T58K, G59S, N101T, A106H
VL: not shown
notes: VH and VL only
B20: 374_A07 (antibody, V domains shown)
VH: B1 VH with A49S, N50G, G55S, T58K
VL: B1 VL with V47L, A51V, T94L
B21: 365_A04 (antibody, V domains shown)
VH: B1 VH with S31D, A49S, N50G, G55S, G59S, N101T, A106H
VL: B1 VL with L30V, R54L, D93S
notes: VH and VL only
B22: 365_H04 (antibody, V domains shown)
VH: B1 VH with S31D, S33G, A49S, N50G, G55S, T58K, G59S, N101T, A106H
VL: B1 VL with S31T, D93E, T94S
notes: VH and VL only
B23: 374_C03 (antibody, V domains shown)
VH: B1 VH with S30D, A49S, N50G, G55S, G59S
VL: B1 VL with S31T, V33L, V47L, T94S
B24: 374_C06 (antibody, V domains shown)
VH: B1 VH with S30D, S31D, A49S, N50S, G55S, T58K
VL: B1 VL with S31T, V47L, D93N, T94S
B25: 367_A11 (antibody, V domains shown)
VH: B1 VH with S33G, N35H, A49S, N50G, G59S, N101T, A106H
VL: B1 VL with A51T, R54L, D93N, T94S
notes: VH and VL only
B26: 365_A02 (antibody, V domains shown)
VH: B1 VH with S30D, A49S, G59S, N101T, A106H
VL: B1 VL with S31T, V47L, D93N, T94S
notes: VH and VL only
B27: 367_H04 (antibody, V domains shown)
VH: B1 VH with A49S, N50S, G59S, N101T, A106H
VL: B1 VL with S31T, V47L, A55H, Y92D, D93N, T94N
notes: VH and VL only
B28: 365_E03 (antibody, V domains shown)
VH: B1 VH with S30D, A49S, N101T, A106H
VL: B1 VL with S31T, V47L, R54L, A55H, Y92D, D93E, T94R
notes: VH and VL only
B29: 374_D01 (antibody, V domains shown)
VH: B1 VH with S30D, A49S, N50G, G55S, T58K
VL: B1 VL with L30I, S31T, V47L, R54L, D93S, T94S
B30: 373_H01 (antibody, V domains shown)
VH: B1 VH with S30D
VL: B1 VL with V33L, T94N
B31: 365_E08 (antibody, V domains shown)
VH: B1 VH with S30D, A49S, N50G, G55S, G59S, N101T, A106H
VL: B1 VL with L30I, R54L, T94L
notes: VH and VL only
B32: 374_E01 (antibody, V domains shown)
VH: B1 VH with S33G, N50G, G59S
VL: B1 VL with L30S, V47L, D93S
B33: 366_F06 (antibody, V domains shown)
VH: B1 VH with S31D, S33G, A49S, N50S, G59S, N101T, A106H
VL: B1 VL with L30S, S31T, V33L, V47L, R54L, D93S, T94N
notes: VH and VL only
B34: 367_F12 (antibody, V domains shown)
VH: B1 VH with S30D, S31D, A49S, G55S, T58K, N101T, A106H
VL: not shown
notes: VH and VL only

Tests used:
[1] = target: T1, Goat anti-Human Kappa; assay: ELISA, positive control
T1 construct: Positive control of the ELISA; also called biotinylated goat anti-human kappa light chain
In short: (§1)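 mAb binding by ELISA; antigens: hu ACVR2A, mu ACVR2A; pos ctrl biotinylated goat anti-hu kappa LC; neg ctrl hu Fc.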

[2] = target: T2, Human ACVR2A (human, UniProt P27037 20-135, limits assumed); assay: ELISA
T2 construct: also called activin receptor, type II A
In short: as §1

[3] = target: Mouse ACVR2A (mouse, UniProt P27038 20-135, limits assumed); assay: ELISA
In short: as §1

[4] = target: T3, biotinylated goat anti-human kappa light chain; assay: ELISA, positive control
T3 construct: Positive control of the ELISA
In short: as §1

[5] = target: mouse ACVR2A (mouse, UniProt P27038 20-135, limits assumed); assay: ELISA
In short: as §1

[6] = target: T4, human ACVR2A (human, UniProt P27037 20-135, limits assumed); assay: ELISA
T4 construct: also called activin receptor, type II A
In short: as §1
Further: test concentration or dose not given here.

Mouse ACVR2A, sequence (P27038 20-135 limits assumed): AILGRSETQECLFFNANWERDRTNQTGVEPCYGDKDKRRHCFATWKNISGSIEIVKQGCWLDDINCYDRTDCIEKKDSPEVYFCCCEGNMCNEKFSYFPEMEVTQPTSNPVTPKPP
mouse ACVR2A, sequence (P27038 20-135 limits assumed): as above
T2 sequence (P27037 20-135 limits assumed): as the sequence (P27038 20-135 limits assumed) above, with R20K, I73V counted along it
T4 sequence (P27037 20-135 limits assumed): as the sequence (P27038 20-135 limits assumed) above, with R20K, I73V counted along it

| Binder | optical density [1] | optical density [2] | optical density [3] | optical density [4] | optical density [5] | optical density [6] |
| --- | --- | --- | --- | --- | --- | --- |
| B1 | 3.12 OD | 3.63 OD | 3.33 OD |  |  |  |
| B2 |  |  |  | 3.05 OD | 3.71 OD | 3.58 OD |
| B3 | 3.26 OD | 3.47 OD | 3.29 OD |  |  |  |
| B4 |  |  |  | 3.32 OD | 2.78 OD | 2.69 OD |
| B5 | 3.05 OD | 3.49 OD | 3.33 OD |  |  |  |
| B6 | 3.3 OD | 3.67 OD | 3.64 OD |  |  |  |
| B7 |  |  |  | 3.54 OD | 2.72 OD | 2.55 OD |
| B8 |  |  |  | 3.37 OD | 3.06 OD | 3.02 OD |
| B9 |  |  |  | 3.26 OD | 1.75 OD | 1.73 OD |
| B10 |  |  |  | 3.45 OD | 2.15 OD | 1.98 OD |
| B11 | 3.22 OD | 3.29 OD | 3.29 OD |  |  |  |
| B12 |  |  |  | 3.46 OD | 2.58 OD | 2.26 OD |
| B13 | 3.26 OD | 3.54 OD | 3.56 OD |  |  |  |
| B14 |  |  |  | 3.46 OD | 2.46 OD | 2.46 OD |
| B15 |  |  |  | 3.55 OD | 2.74 OD | 2.41 OD |
| B16 |  |  |  | 3.42 OD | 3.08 OD | 2.95 OD |
| B17 | 3.02 OD | 3.5 OD | 3.59 OD |  |  |  |

| Binder | optical density [1] | optical density [2] | optical density [3] | optical density [4] | optical density [5] | optical density [6] |
| --- | --- | --- | --- | --- | --- | --- |
| B18 | 3.08 OD | 3.48 OD | 3.6 OD |  |  |  |
| B19 |  |  |  | 3.53 OD | 2.56 OD | 2.38 OD |
| B20 | 3.07 OD | 3.62 OD | 3.71 OD |  |  |  |
| B21 |  |  |  | 3.28 OD | 1.41 OD | 1.49 OD |
| B22 |  |  |  | 3.5 OD | 2.59 OD | 2.47 OD |
| B23 | 3.06 OD | 3.58 OD | 3.61 OD |  |  |  |
| B24 | 3.24 OD | 3.71 OD | 3.71 OD |  |  |  |
| B25 |  |  |  | 3.61 OD | 2.52 OD | 2.34 OD |
| B26 |  |  |  | 3.49 OD | 2.96 OD | 3.03 OD |
| B27 |  |  |  | 3.4 OD | 1.85 OD | 1.62 OD |
| B28 |  |  |  | 3.33 OD | 2.69 OD | 2.56 OD |
| B29 | 2.94 OD | 3.24 OD | 3.58 OD |  |  |  |
| B30 | 3.12 OD | 3.1 OD | 3.28 OD |  |  |  |
| B31 |  |  |  | 3.33 OD | 2.58 OD | 2.59 OD |
| B32 | 3.04 OD | 3.24 OD | 3.56 OD |  |  |  |
| B33 |  |  |  | 3.44 OD | 2.15 OD | 1.87 OD |
| B34 |  |  |  | 3.6 OD | 2.29 OD | 2.38 OD |
